Laboratory results as given in article PMC4995099, “Drosophila Nanos acts as a molecular clamp that modulates the RNA-binding and repression activities of Pumilio”.
Changes are numbered by the printed parent chain.

T1: Pum PUM-HD WT (EMSA) (UniProt P25822 1091-1426)
T1 sequence: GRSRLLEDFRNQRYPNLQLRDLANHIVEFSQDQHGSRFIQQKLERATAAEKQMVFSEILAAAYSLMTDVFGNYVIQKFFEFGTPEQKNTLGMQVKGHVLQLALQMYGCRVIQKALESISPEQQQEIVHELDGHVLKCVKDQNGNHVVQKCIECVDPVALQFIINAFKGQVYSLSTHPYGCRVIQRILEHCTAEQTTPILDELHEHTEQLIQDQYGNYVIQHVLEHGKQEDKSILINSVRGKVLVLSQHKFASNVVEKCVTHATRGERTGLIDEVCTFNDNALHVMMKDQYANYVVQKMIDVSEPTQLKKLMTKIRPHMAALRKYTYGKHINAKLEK

T2: Nos ZC WT (EMSA) (UniProt P25724 289-401)
T2 sequence: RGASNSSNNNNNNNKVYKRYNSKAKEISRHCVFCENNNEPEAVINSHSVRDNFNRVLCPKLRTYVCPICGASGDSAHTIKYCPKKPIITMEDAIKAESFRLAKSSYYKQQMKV

T3: Pum F1367S (UniProt P25822 1091-1426, F1367S)
T3 sequence: T1 sequence with F277S

T4: Pum Q1337A (UniProt P25822 1091-1426, Q1337A)
T4 sequence: T1 sequence with Q247A

T5: Pum PUM-HD WT (EMSA);Nos ZC WT (EMSA) (Drosophila melanogaster?;Drosophila …, UniProt P25822;P25724 1091-1426;289-401, |)
T5 sequence 1: T1 sequence
T5 sequence 2: T2 sequence


Experiments:
[1] = target: T1, Pum PUM-HD WT (EMSA); test: EMSA; EMSA: 50 mM Tris-HCl pH 7.6, 150 mM NaCl, 2 mM DTT, 2 ug/mL BSA, 0.01% Igepal CA-630, 0.02% bromophenol blue, 20% glycerol, 3 h at 4 C; 1 nM Cy5 RNA or 0.3 nM 32P RNA; conditions: protein: recombinant; tags: N-terminal 3xFLAG; Halo-tag removed by TEV; label: 5' Cy5
[2] = target: T2, Nos ZC WT (EMSA); test: EMSA; up to 1 uM Nos ZC; EMSA: 50 mM Tris-HCl pH 7.6, 150 mM NaCl, 2 mM DTT, 2 ug/mL BSA, 0.01% Igepal CA-630, 0.02% bromophenol blue, 20% glycerol, 3 h at 4 C; 1 nM Cy5 RNA or 0.3 nM 32P RNA; conditions: protein: recombinant; tags: C-terminal V5; Halo-tag removed by TEV; label: 5' Cy5
[3] = target: T3, Pum F1367S; test: EMSA; RNA label form not stated; EMSA: 50 mM Tris-HCl pH 7.6, 150 mM NaCl, 2 mM DTT, 2 ug/mL BSA, 0.01% Igepal CA-630, 0.02% bromophenol blue, 20% glycerol, 3 h at 4 C; 1 nM Cy5 RNA or 0.3 nM 32P RNA; conditions: protein: recombinant; tags: N-terminal 3xFLAG; Halo-tag removed by TEV; label: 5' Cy5
[4] = target: T4, Pum Q1337A; test: as above; conditions: protein: recombinant; tags: N-terminal 3xFLAG; Halo-tag removed by TEV; label: 5' Cy5
[5] = target: T5, Pum PUM-HD WT (EMSA);Nos ZC WT (EMSA); test: EMSA; Nos ZC titrated at 100 nM Pum; high affinity, Kd only in figure; EMSA: 50 mM Tris-HCl pH 7.6, 150 mM NaCl, 2 mM DTT, 2 ug/mL BSA, 0.01% Igepal CA-630, 0.02% bromophenol blue, 20% glycerol, 3 h at 4 C; 1 nM Cy5 RNA or 0.3 nM 32P RNA; conditions: protein: recombinant;recombinant, tags: N-terminal 3xFLAG, Halo-tag removed by TEV;C-terminal V5, copies: 1;1, label: 5' Cy5
[6] = target: T5, Pum PUM-HD WT (EMSA);Nos ZC WT (EMSA); test: EMSA; Pum titrated, 400 nM Nos ZC constant; EMSA: 50 mM Tris-HCl pH 7.6, 150 mM NaCl, 2 mM DTT, 2 ug/mL BSA, 0.01% Igepal CA-630, 0.02% bromophenol blue, 20% glycerol, 3 h at 4 C; 1 nM Cy5 RNA or 0.3 nM 32P RNA; conditions: protein: recombinant;recombinant, tags: N-terminal 3xFLAG, Halo-tag removed by TEV;C-terminal V5, copies: 1;1, label: 5' 32P (EMSA), none (crystal)
[7] = target: T1, Pum PUM-HD WT (EMSA); test: EMSA; Pum alone; Kd printed only in figure; EMSA: 50 mM Tris-HCl pH 7.6, 150 mM NaCl, 2 mM DTT, 2 ug/mL BSA, 0.01% Igepal CA-630, 0.02% bromophenol blue, 20% glycerol, 3 h at 4 C; 1 nM Cy5 RNA or 0.3 nM 32P RNA; conditions: protein: recombinant; tags: N-terminal 3xFLAG; Halo-tag removed by TEV; label: 5' 32P (EMSA); none (crystal)

Row | Binder | binding result [1] | binding result [2] | binding result [3] | binding result [4] | binding result [5] | Kd [6] | fold weaker RNA-binding affinity (Kd ratio) [7]
1 | UUGUUGUCGAAAAUUGUACAUAAGCC (ssRNA) [Cy5-hb NRE2 RNA] | binds | no binding | binds | binds | binds |  | 
2 | AAAUUGUACAUAAGCC (ssRNA) [hb NRE2 RNA 16-nt] |  |  |  |  |  | 8.7 nM | 3 fold weaker than with Nos ZC
